Assay [1] addresses T1, human Aβ fragment 16-25 (human, UniProt P05067 687-696).
T1 construct: range 16-25; also called human amyloid beta 16-25
T1 peptide (looked up): KLVFFAEDVG
Briefly: BIAcore, single concentration of peptide.
Text: (§1) All dilutions were made with HEPES buffered saline containing Tween 20. A single concentration of a variety of fragments of human Aβ or mouse Aβ 1-40 (BioSource International) was used.

Assay [2] addresses T2, human amyloid beta fragment 1-20 (human, UniProt P05067 672-691).
T2 construct: range 1-20; also called human Aβ 1-20
T2 peptide (looked up): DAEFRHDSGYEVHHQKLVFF
Briefly: BIAcore, single concentration of peptide.
Text: as §1

In assay [3] the target is T3, mouse Aβ 1-40 (mouse, UniProt P12023 672-711).
T3 construct: range 1-40; The range counts on the Aβ peptide, not on the mouse APP precursor
T3 peptide (looked up): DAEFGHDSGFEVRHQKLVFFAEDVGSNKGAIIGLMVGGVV
Briefly: BIAcore, single concentration of peptide.
Text: as §1

For assay [4], the target named is T4, human amyloid beta fragment 1-10 (human, UniProt P05067 672-681).
T4 construct: range 1-10; also called human Aβ 1-10
T4 peptide (looked up): DAEFRHDSGY
Briefly: BIAcore, single concentration of peptide.
Text: as §1

Assay [5] deals with T5, human Aβ fragment 10-20 (human, UniProt P05067 681-691).
T5 construct: range 10-20; also called human amyloid beta 10-20
T5 peptide (looked up): YEVHHQKLVFF
Briefly: BIAcore, single concentration of peptide.
Text: as §1

The target in assay [6] is T6, Amyloid-beta 1-40 (UniProt P05067 672-711).
T6 construct: range 1-40; The range 1-40 counts on the Aβ peptide, not on the APP precursor; also called Aβ 1-40
Briefly: BIAcore 2000 SPR; antibody captured by anti-human Ig, Aβ flowed over; Aβ 1-40; monophasic.
Experimental: (§2) Antibody affinity (KD=Kd/Ka) was determined using a BIAcore biosensor 2000 and data analyzed with BIAevaluation (v. 3.1) software. A capture antibody (rabbit anti-mouse Ig or anti-human Ig) was coupled via free amine groups to carboxyl groups on flow cell 2 of a biosensor chip (CM5) using N-ethyl-N-dimethylaminopropyl carbodiimide and N-hydroxysuccinimide (EDC/NHS). A non-specific rabbit IgG was coupled to flow cell 1 as a background control. Monoclonal antibodies were captured to yield 300 resonance units (RU). […] To regenerate the chip, bound anti-Aβ antibody was eluted from the chip using a wash with glycine-HCl (pH 2). A control injection containing no amyloid-beta served as a control for baseline subtraction.

The target in assay [7] is T7, β-amyloid peptide (1-42) (UniProt P05067 672-713).
T7 construct: range 1-42; The range 1-42 counts on the Aβ peptide, not on the APP precursor; also called Aβ 1-42; Amyloid-beta 1-42
Briefly: BIAcore 2000 SPR; antibody captured, Aβ flowed over; biphasic, second affinity; Aβ 1-42; biphasic, low-affinity component.
Experimental: as §2

Assay [8] concerns the target T7, β-amyloid peptide (1-42). Briefly: competitive ELISA on coated Aβ 1-42 against biotinylated Mu10D5; mean of three experiments (SD 0.6 µg/mL), second set; second set of three experiments (SD 0.6 µg/mL).
Experimental: (§3) After washing the wells with phosphate buffered saline (PBS) containing 0.1% Tween 20 (Washing Buffer) using an ELISA plate washer, the wells were blocked by adding 300 μL of SuperBlock reagent (Pierce) per well. After 30 minutes of blocking, the wells were washed with Washing Buffer and excess liquid was removed.
(§4) As a background control, 100 μl of ELISA Buffer was added. The ELISA plate was incubated at room temperature for 90 min. […] The plate was incubated at room temperature for 30 min and washed with Washing Buffer. For color development, 100 μl/well of ABTS Peroxidase Substrate (Kirkegaard & Perry Laboratories) was added. Color development was stopped by adding 100 μl/well of 2% oxalic acid. […] The absorbances were plotted against the log of the competitor concentration, curves were fit to the data points (using Prism) and the IC50 was determined for each antibody using methods well-known in the art.
The target of assay [9] is T7, β-amyloid peptide (1-42). Briefly: competitive ELISA on coated Aβ 1-42 against biotinylated Mu10D5; mean of three experiments (SD 11.8 µg/mL), first set; first set of three experiments (SD 11.8 µg/mL).
Experimental: as §3, §4
For assay [10], the target named is T7, β-amyloid peptide (1-42). Briefly: BIAcore 2000 SPR; antibody captured, Aβ flowed over; biphasic, first affinity; Aβ 1-42; biphasic, high-affinity component.
Experimental: as §2

B1: humanized 10D5 antibody (antibody, human IgG1, kappa, V domains shown)
VH: QVTLKESGPVLVKPTETLTLTCTFSGFSLSTSGMGVSWIRQPPGKALEWLAHIYWDDDKRYNPSLKSRLTISKDTSKSQVVLTMTNMDPVDTATYYCVRRPITPVLVDAMDYWGQGTLVTVSS
VL: DVVMTQSPLSLPVTLGQPASISCRSSQNIIHSNGNTYLEWYLQKPGQSPRLLIYKVSNRFSGVPDRFSGSGSGTDFTLKISRVEAEDVGVYYCFQGSHVPLTFGGGTKVEIKR
notes: also called Hu10D5
As for B1, the binding result is recorded as “no binding” in assay [1]; “binds” in assay [2]; “no binding” in [3]; “binds” in [4]; “no binding” in assay [5]. Further, the values for the Kd in [6], in assay [7] and in assay [10] were 209 nM, 1020 nM and 0.19 nM, respectively. The half-maximal inhibitory concentration (IC50) is 16 µg/mL in assay [8] and 49.1 µg/mL in assay [9].

For the origin of these results see patent US20050142131A1 (Eli Lilly, published 2005).
